These results are taken from PMC8469703, “Arginine Methylation of hnRNPK Inhibits the DDX3-hnRNPK Interaction to Play an Anti-Apoptosis Role in Osteosarcoma Cells” (International Journal of Molecular Sciences, 2021).

Test [1] has as its target T1, GST-tagged C-terminal region of DDX3 (GST-DDX3^535–662) (human, UniProt O00571 535-662).
T1 construct: Vector pGEX-5X-1; also called DDX3 C-terminus
Description: pull-down; bead-bound GST-DDX3 variants incubated with recombinant hnRNPK or the KI segment; binding buffer PBS with 0.5% NP-40, 0.25% sodium deoxycholate, 5% glycerol, protease inhibitors; 4 °C, 1 h; three washes; SDS-PAGE. Particulars: both partners purified.

Test [2] addresses T2, GST-tagged full-length DDX3 (GST-DDX3^1–662) (human, UniProt O00571 1-662).
T2 construct: Vector pGEX-5X-1
The test is described as above. Particulars: both partners purified.

T2 sequence (O00571 whole entry): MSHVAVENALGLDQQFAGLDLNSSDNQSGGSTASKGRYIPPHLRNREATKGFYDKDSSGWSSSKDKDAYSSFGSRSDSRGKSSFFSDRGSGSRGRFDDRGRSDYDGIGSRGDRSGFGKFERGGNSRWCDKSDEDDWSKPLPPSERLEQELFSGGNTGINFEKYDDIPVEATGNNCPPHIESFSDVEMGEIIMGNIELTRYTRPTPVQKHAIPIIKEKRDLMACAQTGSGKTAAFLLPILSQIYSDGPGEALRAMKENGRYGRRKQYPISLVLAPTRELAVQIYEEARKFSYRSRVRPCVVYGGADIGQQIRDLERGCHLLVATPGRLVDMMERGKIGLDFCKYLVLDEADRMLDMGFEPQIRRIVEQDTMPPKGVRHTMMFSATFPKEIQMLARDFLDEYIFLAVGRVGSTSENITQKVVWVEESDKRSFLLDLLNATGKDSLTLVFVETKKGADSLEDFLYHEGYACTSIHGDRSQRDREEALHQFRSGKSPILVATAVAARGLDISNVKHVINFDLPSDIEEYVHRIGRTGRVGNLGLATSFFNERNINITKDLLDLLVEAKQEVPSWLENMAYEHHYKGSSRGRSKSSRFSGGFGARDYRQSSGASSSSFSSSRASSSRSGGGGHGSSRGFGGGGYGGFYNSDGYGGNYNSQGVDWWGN
T1 sequence (O00571 535-662): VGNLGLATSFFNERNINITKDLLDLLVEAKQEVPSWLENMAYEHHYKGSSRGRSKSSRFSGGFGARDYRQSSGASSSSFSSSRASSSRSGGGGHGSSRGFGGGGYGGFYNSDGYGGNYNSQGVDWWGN

B1: His6-tagged Trx-KI (K-interactive region of hnRNPK, amino acids 240–336) (domain or fragment, UniProt P61978 240-336, looked up)
chain: TMMFDDRRGRPVGFPMRGRGGFDRMPPGRGGRPMPPSRRDYDDMSPRRGPPPPPPGRGGRGGSRARNLPLPPPPPPRGGDLMAYDRRGRPGDRYDGM
notes: also called his-KI; KI segment; source: E. coli BL21 DE3 pLysS, purified (Ni-NTA agarose, dialysis)
For the molecule B1, the binding result in test [1] and in test [2] was “binds” each time.
